T1: murine NRP1 (mouse, UniProt P97333)
T1 chain: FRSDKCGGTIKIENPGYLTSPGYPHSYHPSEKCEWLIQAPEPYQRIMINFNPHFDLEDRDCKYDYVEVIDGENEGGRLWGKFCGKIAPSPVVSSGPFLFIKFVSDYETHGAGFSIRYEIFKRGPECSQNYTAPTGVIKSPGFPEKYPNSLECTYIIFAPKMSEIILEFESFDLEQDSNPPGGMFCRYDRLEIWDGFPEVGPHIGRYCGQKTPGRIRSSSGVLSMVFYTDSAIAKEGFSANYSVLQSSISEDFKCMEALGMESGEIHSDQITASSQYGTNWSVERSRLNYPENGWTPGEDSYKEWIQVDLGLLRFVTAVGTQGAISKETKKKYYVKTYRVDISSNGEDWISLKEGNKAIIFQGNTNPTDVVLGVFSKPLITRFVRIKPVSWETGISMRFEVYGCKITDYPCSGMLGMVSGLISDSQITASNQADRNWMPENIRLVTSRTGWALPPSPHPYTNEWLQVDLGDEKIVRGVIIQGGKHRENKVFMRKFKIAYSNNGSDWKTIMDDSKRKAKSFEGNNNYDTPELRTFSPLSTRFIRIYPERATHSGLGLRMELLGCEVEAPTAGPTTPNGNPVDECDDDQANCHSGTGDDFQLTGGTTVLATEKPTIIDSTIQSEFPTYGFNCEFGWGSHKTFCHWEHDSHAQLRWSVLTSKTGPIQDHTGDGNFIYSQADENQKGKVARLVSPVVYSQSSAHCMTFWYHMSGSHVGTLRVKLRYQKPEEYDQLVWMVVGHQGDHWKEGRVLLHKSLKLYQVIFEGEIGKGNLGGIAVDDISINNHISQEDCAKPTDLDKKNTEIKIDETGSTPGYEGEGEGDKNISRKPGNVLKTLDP


Legend:
[1] = biological target: human NRP1 (human, UniProt O14786); assay: competition phage ELISA
[2] = biological target: T1, murine NRP1; assay: competition phage ELISA

Binder | IC50 [1] | IC50 [2]
YW107.4.58 (antibody, V domains shown) VH: EVQLVESGGGLVQPGGSLRLSCAASGFTFSSYAMSWVRQAPGKGLEWVSQISPAGGYTNYADSVKGRFTISADTSKNTAYLQMNSLRAEDTAVYYCARELPYYRMSKVMDVWGQGTLVTVSS VL: DIQMTQSPSSLSASVGDRVTITCRASQYISSYLAWYQQKPGKAPKLLIYGASSRASGVPSRFSGSGSGTDFTLTISSLQPEDFATYYCQQYKSSPRTFGQGTKVEIKR | 0.73 nM | 3.5 nM
YW107.4.55 (antibody, V domains shown) VH: EVQLVESGGGLVQPGGSLRLSCAASGFTFSSYAMSWVRQAPGKGLEWVSQISPAGGYTNYADSVKGRFTISADTSKNTAYLQMNSLRAEDTAVYYCARELPYYRMSKVMDVWGQGTLVTVSS VL: DIQMTQSPSSLSASVGDRVTITCRASQLTHSYLAWYQQKPGKAPKLLIYGASSRASGVPSRFSGSGSGTDFTLTISSLQPEDFATYYCQQYYSSPLTFGQGTKVEIKR | 0.93 nM | 2 nM
YW107.4.59 (antibody, V domains shown) VH: EVQLVESGGGLVQPGGSLRLSCAASGFTFSSYAMSWVRQAPGKGLEWVSQISPAGGYTNYADSVKGRFTISADTSKNTAYLQMNSLRAEDTAVYYCARELPYYRMSKVMDVWGQGTLVTVSS VL: DIQMTQSPSSLSASVGDRVTITCRASQRIHSYLAWYQQKPGKAPKLLIYGASSRASGVPSRFSGSGSGTDFTLTISSLQPEDFATYYCQQYYISPLTFGQGTKVEIKR | 1.8 nM | 26 nM
YW107.4.66 (antibody, V domains shown) VH: EVQLVESGGGLVQPGGSLRLSCAASGFTFSSYAMSWVRQAPGKGLEWVSQISPAGGYTNYADSVKGRFTISADTSKNTAYLQMNSLRAEDTAVYYCARELPYYRMSKVMDVWGQGTLVTVSS VL: DIQMTQSPSSLSASVGDRVTITCRASQYISSYLAWYQQKPGKAPKLLIYGASSRASGVPSRFSGSGSGTDFTLTISSLQPEDFATYYCQQYIVSPLTFGQGTKVEIKR | 0.45 nM | 2.6 nM
YW107.4.17 (antibody, V domains shown) VH: EVQLVESGGGLVQPGGSLRLSCAASGFTFSSYAMSWVRQAPGKGLEWVSQISPAGGYTNYADSVKGRFTISADTSKNTAYLQMNSLRAEDTAVYYCARELPYYRMSKVMDVWGQGTLVTVSS VL: DIQMTQSPSSLSASVGDRVTITCRASQYTHSYLAWYQQKPGKAPKLLIYGASSRASGVPSRFSGSGSGTDFTLTISSLQPEDFATYYCQQYYSSPVTFGQGTKVEIKR | 0.24 nM | 6 nM
YW107.4.51 (antibody, V domains shown) VH: EVQLVESGGGLVQPGGSLRLSCAASGFTFSSYAMSWVRQAPGKGLEWVSQISPAGGYTNYADSVKGRFTISADTSKNTAYLQMNSLRAEDTAVYYCARELPYYRMSKVMDVWGQGTLVTVSS VL: DIQMTQSPSSLSASVGDRVTITCRASQRISSYLAWYQQKPGKAPKLLIYGASRRESGVPSRFSGSGSGTDFTLTISSLQPEDFATYYCQQYKLSPLTFGQGTKVEIKR | 2 nM | 12 nM
YW107.4.85 (antibody, V domains shown) VH: EVQLVESGGGLVQPGGSLRLSCAASGFTFSSYAMSWVRQAPGKGLEWVSQISPAGGYTNYADSVKGRFTISADTSKNTAYLQMNSLRAEDTAVYYCARELPYYRMSKVMDVWGQGTLVTVSS VL: DIQMTQSPSSLSASVGDRVTITCRASQYISSYLAWYQQKPGKAPKLLIYGASSGESGVPSRFSGSGSGTDFTLTISSLQPEDFATYYCQQYIISPITFGQGTKVEIKR | 0.44 nM | 4 nM
YW107.4.76b (antibody, V domains shown) VH: EVQLVESGGGLVQPGGSLRLSCAASGFTFSSYAMSWVRQAPGKGLEWVSQISPAGGYTNYADSVKGRFTISADTSKNTAYLQMNSLRAEDTAVYYCARELPYYRMSKVMDVWGQGTLVTVSS VL: DIQMTQSPSSLSASVGDRVTITCRASQWVHSYLAWYQQKPGKAPKLLIYGASSRASGVPSRFSGSGSGTDFTLTISSLQPEDFATYYCQQYYGTPITFGQGTKVEIKR | 0.34 nM | 3.9 nM
YW107.4.12 (antibody, V domains shown) VH: EVQLVESGGGLVQPGGSLRLSCAASGFTFSSYAMSWVRQAPGKGLEWVSQISPAGGYTNYADSVKGRFTISADTSKNTAYLQMNSLRAEDTAVYYCARELPYYRMSKVMDVWGQGTLVTVSS VL: DIQMTQSPSSLSASVGDRVTITCRASQYTHSYLAWYQQKPGKAPKLLIYGASSRASGVPSRFSGSGSGTDFTLTISSLQPEDFATYYCQQYYSSPITFGQGTKVEIKR | 0.1 nM | 3.4 nM
YW107.4.42 (antibody, V domains shown) VH: EVQLVESGGGLVQPGGSLRLSCAASGFTFSSYAMSWVRQAPGKGLEWVSQISPAGGYTNYADSVKGRFTISADTSKNTAYLQMNSLRAEDTAVYYCARELPYYRMSKVMDVWGQGTLVTVSS VL: DIQMTQSPSSLSASVGDRVTITCRASQWIHSYLAWYQQKPGKAPKLLIYGASSSASGVPSRFSGSGSGTDFTLTISSLQPEDFATYYCQQYYSSPLTFGQGTKVEIKR | 0.81 nM | 1.2 nM
YW107.4.33b (antibody, V domains shown) VH: EVQLVESGGGLVQPGGSLRLSCAASGFTFSSYAMSWVRQAPGKGLEWVSQISPAGGYTNYADSVKGRFTISADTSKNTAYLQMNSLRAEDTAVYYCARELPYYRMSKVMDVWGQGTLVTVSS VL: DIQMTQSPSSLSASVGDRVTITCRASQYIHSYLAWYQQKPGKAPKLLIYGASRRASGVPSRFSGSGSGTDFTLTISSLQPEDFATYYCQQYYGTPHTFGQGTKVEIKR | 0.58 nM | 7.8 nM
YW107.4.78 (antibody, V domains shown) VH: EVQLVESGGGLVQPGGSLRLSCAASGFTFSSYAMSWVRQAPGKGLEWVSQISPAGGYTNYADSVKGRFTISADTSKNTAYLQMNSLRAEDTAVYYCARELPYYRMSKVMDVWGQGTLVTVSS VL: DIQMTQSPSSLSASVGDRVTITCRASQYISSYLAWYQQKPGKAPKLLIYGASSRESGVPSRFSGSGSGTDFTLTISSLQPEDFATYYCQQYLSSPITFGQGTKVEIKR | 0.3 nM | 1.7 nM
YW107.4.20 (antibody, V domains shown) VH: EVQLVESGGGLVQPGGSLRLSCAASGFTFSSYAMSWVRQAPGKGLEWVSQISPAGGYTNYADSVKGRFTISADTSKNTAYLQMNSLRAEDTAVYYCARELPYYRMSKVMDVWGQGTLVTVSS VL: DIQMTQSPSSLSASVGDRVTITCRASQRTHSYLAWYQQKPGKAPKLLIYGASSRASGVPSRFSGSGSGTDFTLTISSLQPEDFATYYCQQYYGSPHTFGQGTKVEIKR | 0.45 nM | 33 nM
YW107.4.53 (antibody, V domains shown) VH: EVQLVESGGGLVQPGGSLRLSCAASGFTFSSYAMSWVRQAPGKGLEWVSQISPAGGYTNYADSVKGRFTISADTSKNTAYLQMNSLRAEDTAVYYCARELPYYRMSKVMDVWGQGTLVTVSS VL: DIQMTQSPSSLSASVGDRVTITCRASQYISSYLAWYQQKPGKAPKLLIYGASRRESGVPSRFSGSGSGTDFTLTISSLQPEDFATYYCQQYLNSPLTFGQGTKVEIKR | 0.3 nM | 1.7 nM
YW107.4.54 (antibody, V domains shown) VH: EVQLVESGGGLVQPGGSLRLSCAASGFTFSSYAMSWVRQAPGKGLEWVSQISPAGGYTNYADSVKGRFTISADTSKNTAYLQMNSLRAEDTAVYYCARELPYYRMSKVMDVWGQGTLVTVSS VL: DIQMTQSPSSLSASVGDRVTITCRASQPLHSYLAWYQQKPGKAPKLLIYGASSRASGVPSRFSGSGSGTDFTLTISSLQPEDFATYYCQQYYRSPLTFGQGTKVEIKR | 0.84 nM | 2.7 nM
YW107.4.41 (antibody, V domains shown) VH: EVQLVESGGGLVQPGGSLRLSCAASGFTFSSYAMSWVRQAPGKGLEWVSQISPAGGYTNYADSVKGRFTISADTSKNTAYLQMNSLRAEDTAVYYCARELPYYRMSKVMDVWGQGTLVTVSS VL: DIQMTQSPSSLSASVGDRVTITCRASQWTHSYLAWYQQKPGKAPKLLIYGASRLESGVPSRFSGSGSGTDFTLTISSLQPEDFATYYCQQYFISPHTFGQGTKVEIKR | 0.43 nM | 5.5 nM
YW107.4.33a (antibody, V domains shown) VH: EVQLVESGGGLVQPGGSLRLSCAASGFTFSSYAMSWVRQAPGKGLEWVSQISPAGGYTNYADSVKGRFTISADTSKNTAYLQMNSLRAEDTAVYYCARELPYYRMSKVMDVWGQGTLVTVSS VL: DIQMTQSPSSLSASVGDRVTITCRASQYISSYLAWYQQKPGKAPKLLIYGASRRASGVPSRFSGSGSGTDFTLTISSLQPEDFATYYCQQYIGSPITFGQGTKVEIKR | 0.31 nM | –
